# Where “and” joins values, the source holds several entries; their conditions need not be identical. Equal entries are not always repeated.
# B1: Lysozyme C wild type, P61626 (protein)
# chain: MKALIVLGLVLLSVTVQGKVFERCELARTLKRLGMDGYRGISLANWMCLAKWESGYNTRATNYNAGDRSTDYGIFQINSRYWCNDGKTPGAVNACHLSCSALLQDNIADAVACAKRVVRDPQGIRAWVAWRNRCQNRDVRQYVQGCGV
# Conditions: Homo sapiens, DSC, reversible: yes, whole UniProt chain shown; for Tm / heat capacity change of unfolding / unfolding enthalpy (calorimetric) / unfolding enthalpy (van 't Hoff): Thermal; for denaturant m value / denaturant midpoint (higher = more stable) / unfolding free energy: 25 °C, GdnHCl
protein,measurement,setting,value
B1,Tm,"pH 2.63, glycine-HCl 50 mM",55.6 °C
same,heat capacity change of unfolding,"pH 2.63, glycine-HCl 50 mM",1.94 kcal/mol/K
same,unfolding enthalpy (calorimetric),"pH 2.63, glycine-HCl 50 mM",379 kJ/mol
same,unfolding enthalpy (van 't Hoff),"pH 2.63, glycine-HCl 50 mM",403 kJ/mol
same,Tm,"pH 2.64, glycine-HCl 50 mM",56.4 °C
same,heat capacity change of unfolding,"pH 2.64, glycine-HCl 50 mM",1.63 kcal/mol/K
same,unfolding enthalpy (calorimetric),"pH 2.64, glycine-HCl 50 mM",398 kJ/mol
same,unfolding enthalpy (van 't Hoff),"pH 2.64, glycine-HCl 50 mM",400 kJ/mol
same,Tm,"pH 2.68, glycine-HCl 50 mM",56.8 °C
same,heat capacity change of unfolding,"pH 2.68, glycine-HCl 50 mM",1.94 kcal/mol/K
same,unfolding enthalpy (calorimetric),"pH 2.68, glycine-HCl 50 mM",385 kJ/mol
same,unfolding enthalpy (van 't Hoff),"pH 2.68, glycine-HCl 50 mM",403 kJ/mol
same,Tm,"pH 2.75, glycine-HCl 50 mM",58.2 °C
same,heat capacity change of unfolding,"pH 2.75, glycine-HCl 50 mM",1.77 kcal/mol/K
same,unfolding enthalpy (calorimetric),"pH 2.75, glycine-HCl 50 mM",408 kJ/mol
same,unfolding enthalpy (van 't Hoff),"pH 2.75, glycine-HCl 50 mM",414 kJ/mol
same,Tm,"pH 2.78, glycine-HCl 50 mM",59 °C
same,heat capacity change of unfolding,"pH 2.78, glycine-HCl 50 mM",1.31 kcal/mol/K
same,unfolding enthalpy (calorimetric),"pH 2.78, glycine-HCl 50 mM",410 kJ/mol
same,unfolding enthalpy (van 't Hoff),"pH 2.78, glycine-HCl 50 mM",423 kJ/mol
same,Tm,"pH 2.84, glycine-HCl 50 mM",60.3 °C
same,heat capacity change of unfolding,"pH 2.84, glycine-HCl 50 mM",1.67 kcal/mol/K
same,unfolding enthalpy (calorimetric),"pH 2.84, glycine-HCl 50 mM",412 kJ/mol
same,unfolding enthalpy (van 't Hoff),"pH 2.84, glycine-HCl 50 mM",431 kJ/mol
same,Tm,"pH 2.87, glycine-HCl 50 mM",60.5 °C
same,heat capacity change of unfolding,"pH 2.87, glycine-HCl 50 mM",1.7 kcal/mol/K
same,unfolding enthalpy (calorimetric),"pH 2.87, glycine-HCl 50 mM",414 kJ/mol
same,unfolding enthalpy (van 't Hoff),"pH 2.87, glycine-HCl 50 mM",414 kJ/mol
same,Tm,"pH 2.93, glycine-HCl 50 mM",62.5 °C
same,heat capacity change of unfolding,"pH 2.93, glycine-HCl 50 mM",1.46 kcal/mol/K
same,unfolding enthalpy (calorimetric),"pH 2.93, glycine-HCl 50 mM",427 kJ/mol
same,unfolding enthalpy (van 't Hoff),"pH 2.93, glycine-HCl 50 mM",427 kJ/mol
same,denaturant m value,"pH 3, glycine-HCl 50 mM",3.23 kcal/mol/M and 3.01 kcal/mol/M
same,denaturant midpoint (higher = more stable),"pH 3, glycine-HCl 50 mM",2.9 M and 2.1 M
same,unfolding free energy,"pH 3, glycine-HCl 50 mM",39.7 kJ/mol and 25.9 kJ/mol
same,denaturant m value,"pH 4, glycine-HCl 50 mM",3.37 kcal/mol/M and 2.96 kcal/mol/M
same,denaturant midpoint (higher = more stable),"pH 4, glycine-HCl 50 mM",3.8 M and 2.8 M
same,unfolding free energy,"pH 4, glycine-HCl 50 mM",53.8 kJ/mol and 34.5 kJ/mol
same,denaturant m value,"pH 7, Sodium phosphate 50 mM",3.01 kcal/mol/M
same,denaturant midpoint (higher = more stable),"pH 7, Sodium phosphate 50 mM",4 M
same,unfolding free energy,"pH 7, Sodium phosphate 50 mM",50.4 kJ/mol

# Source: FireProtDB (doi:10.1093/protein/13.4.299)
